Measurements from publication PMC12260524, “Identification of a VPS29 isoform with restricted association to Retriever and Retromer accessory proteins through autoinhibition” (Proceedings of the National Academy of Sciences of the …, 2025).

Target: GST-VPS29C (human) (UniProt F8VXU5)
Test: ITC; 300 μM peptide titrated into 10 μM GST-tagged VPS29C, 25 °C, 50 mM Tris-HCl pH 7.5, 200 mM NaCl, 2 mM β-mercaptoethanol; single-site model

Kd: > 100 µM
Substance: VPS35L 28 to 37 (from UniProt Q7Z3J2 28-37) (peptide)
